In assay [1] the target is T1, LcrH_(1–168), class II chaperone LcrH from Y. pestis (Y. pestis, UniProt P21207 1-168).
T1 construct: also called LcrH/SycD
T1 sequence: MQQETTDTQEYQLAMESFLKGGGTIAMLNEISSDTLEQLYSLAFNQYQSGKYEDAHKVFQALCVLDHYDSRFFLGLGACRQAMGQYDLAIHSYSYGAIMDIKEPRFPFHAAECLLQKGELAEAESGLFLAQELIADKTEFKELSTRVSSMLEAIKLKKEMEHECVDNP
Kind of assay: ITC. Conditions: both partners purified.

In a further assay the target is LcrH. Further details: method as in PMID 23233673. Conditions: unbound chaperone weak homodimer; read-out: dimerization KD; cited from earlier work.

In assay [1], QVPELIKPSQ (source: synthetic peptide) [YopD_(56–65) 10 mer N-terminal anchor peptide of the minor translocator YopD] gave a Kd of 82 µM and a dH of -12.2 kcal/mol.

In assay [1], QGVQLPAPLA (source: synthetic peptide) [YopB_(48–57) 10 mer N-terminal anchor peptide of the major translocator YopB] showed a Kd of 155 µM and a dH of -10.5 kcal/mol.

B1: LcrH: class II chaperone from Yersina Sp., forms weak homodimers when unbound (protein)
chain: T1 sequence
Turning to B1, the Kd on LcrH was around 15 µM.

Usually Kd stands for the free concentration of one partner at which half of the binding sites on the other are occupied at equilibrium, for simple one-to-one binding.

The values above are taken from PMC10116596 (Biochemistry, 2023).
